Laboratory results from patent publication US11944665B2, “Methods and compositions for modulating lymphatic vessels in the central nervous system” (University of Virginia Patent Foundation, priority 2016, dated 2024).
Entries after “also recorded” stand apart in the source; their conditions may differ.

Key:
[1] = test system: meningeal lymphatic vessels; test: Transcranial gel+VEGF-C156S in old mice (Example 4); format: in vivo, C57BL/6 mice; settings: one month transcranial treatment, 2 h after OVA-A647 ICM
Experimental: […] of a gel matrix alone (vehicle) or containing 200 ng of recombinant human VEGF-C156S was applied every two weeks on top of a thinned skull of old C57BL/6 mice. One month after the initial treatment, OVA-A647 was injected ICM and mice were transcardially perfused with saline 2 h post injection. […] OVA-A647 alone is shown in the inset in the upper right corner of each of FIGS. 27A and 27B, and LYVE-1 alone is shown in the inset in the lower right corner of each of FIGS. 27A and 27B.

[2] = test system: meningeal lymphatic vessels; test: i.c.v. (cisterna magna) injection of rhVEGF-c, meningeal lymphatic vessel diameter (FIG. 2D-E); format: in vivo, mice; settings: single injection of recombinant protein into the CSF (i.c.v.)
Excerpt: FIGS. 2A-H are a series of microscope images and graphs showing Molecular and structural characterization of meningeal lymphatic vessels. FIG. 2A is a series of representative images of Prox1 expression in the nuclei of Lyve-1^+ vessels in the dural sinuses of Prox1^tdT mice (scale bars, 10p m)(in order of left-to-right, the four panels show Lyve-1, Prox1-tdTOMATO, DAPI, and overlay). FIG. 2B is a series of representative images of podoplanin and Lyve-1 labelling on dural sinuses (scale bar, 40 μm) (in order of left-to-right, the three panels show Lyve-1. Podoplanin, and overlay). FIG. 2C is a series of representative images of VEGFR3 and Lyve-1 staining on dural sinuses (scale bar, 20 μm)(in order of left-to-right, the three panels show VEGFR3. Lyve-1, and overlay). For FIGS. 2D and 2E Adult mice were injected i.c.v. (cisterna magna) with 4 μg of rhVEGF-c (Cys156Ser) or with PBS. Meninges were harvested 7 and 14 days after the injection. […] FIG. 2E is a graph showing quantification of the meningeal lymphatic vessel diameter (mean±s.e.m.; n=4 mice each group, *P<0.05, two-way ANOVA with Bonferroni post hoc test). FIGS. 2F and 2G are a series of representative images of smooth muscle cells (alpha-smooth muscle actin, α-SMA) and Lyve-1 labelling on dural sinuses (scale bars, 50 μm (g) or 20 μm(g)). […]

meningeal lymphatic = test: Lymphatic drainage of fluorescent microbeads into deep cervical lymph nodes (FIG. 15); format: in vivo, mice; settings: VEGF-c injected into CSF, 5 days after injection, vs PBS
Experimental: FIGS. 15A-E are a series of diagrams, microscope images, and graphs showing modulation of the meningeal lymphatic affects drainage into the cervical lymph nodes. […] Fluorescent microbeads (0.5 μm in diameter-5 μl) were injected in the lateral ventricle of mice at a rate of 0.5 μl/min. 30 min later, the deep cervical lymph nodes were harvested, sliced and immunostained for the presence of fluorescent beads. FIG. 15B is a pair of representative sections of deep cervical lymph nodes from sham operated (left) and ligated (right) mice immunostained for lymphatic vasculature (Lyve-1), fluorescent microbeads and Lyve-1. Note the accumulation of microbeads in the subcapsular space of the lymph nodes in the sham operated mice (left). […] N=3-4 mice per group, Student-t-test. d. Quantification of the coverage of dCLN section by fluorescent beads in PBS and Visudyne injected mice (24 h after ablation). N=3-5 mice per group, *p<0.05, Student-t-test. e. Quantification of the coverage of dCLN section by fluorescent beads in PBS and VEGF-c injected mice (5 days after VEGF-c injection). N=4 mice per group.

Molecule	OVA-A647 influx from the CSF into the parenchyma [1]	diameter of meningeal lymphatic vessels [2]	diameter of meningeal lymphatic vessels ([2]; listed as recombinant VEGF-c)	lymphatic drainage (efficacy) after VEGF-c (meningeal lymphatic)	lymphatic drainage (efficacy) after VEGF-c (meningeal lymphatic; listed as recombinant VEGF-c)	drainage of OVA-A647 into the dcLNs [1]
VEGF-c: VEGFR3 agonist polypeptide, lymphangiogenic growth factor, SEQ ID NO: 1; recombinant protein injected into CSF (FIG. 2e used rhVEGF-c Cys156Ser) (protein, listed as Homo sapiens) MHLLGFFSVACSLLAAALLPGPREAPAAAAAFESGLDLSDAEPDAGEATAYASKDLEEQLRSVSSVDELMTVLYPEYWKMYKCQLRKGGWQHNREQANLNSRTEETIKFAAAHYNTEILKSIDNEWRKTQCMPREVCIDVGKEFGVATNTFFKPPCVSVYRCGGCCNSEGLQCMNTSTSYLSKTLFEITVPLSQGPKPVTISFANHTSCRCMSKLDVYRQVHSIIRRSLPATLPQCQAANKTCPTNYMWNNHICRCLAQEDFMFSSDAGDDSTDGFHDICGPNKELDEETCQCVCRAGLRPASCGPHKELDRNSCQCVCKNKLFPSQCGANREFDENTCQCVCKRTCPRNQPLNPGKCACECTESPQKCLLKGKKFHHQTCSCYRRPCTNRQKACEPGFSYSEEVCRCVPSYWKRPQMS	improved CSF influx into brain	increase in diameter; also recorded: increase the diameters of meningeal lymphatic vessels	sufficient to increase diameter	improves the drainage	increase drainage efficacy	–
VEGF-C156S: recombinant human VEGF-C156S, applied in a gel matrix on a thinned skull (protein, UniProt P49767 112-227, looked up, variant C156S) Vascular endothelial growth …: AHYNTEILKSIDNEWRKTQCMPREVCIDVGKEFGVATNTFFKPPSVSVYRCGGCCNSEGLQCMNTSTSYLSKTLFEITVPLSQGPKPVTISFANHTSCRCMSKLDVYRQVHSIIRR	–	–	–	–	–	increased
